Numbering of substitutions follows the chain as printed.
T1: NHERF3_4, Q5T2W1
T1 sequence (Q5T2W1 373-468, limits assumed, looked up): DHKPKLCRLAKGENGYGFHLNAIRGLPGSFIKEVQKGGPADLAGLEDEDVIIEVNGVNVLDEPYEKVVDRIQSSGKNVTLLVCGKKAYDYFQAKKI

T2: MPDZ_10, O75970
T2 sequence (O75970 1624-1722, limits assumed, looked up): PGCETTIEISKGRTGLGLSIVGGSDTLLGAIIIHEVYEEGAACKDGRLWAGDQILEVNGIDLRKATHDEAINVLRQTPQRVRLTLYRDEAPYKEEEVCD

T3: FRMPD1, Q5SYB0
T3 sequence (Q5SYB0 52-145, limits assumed, looked up): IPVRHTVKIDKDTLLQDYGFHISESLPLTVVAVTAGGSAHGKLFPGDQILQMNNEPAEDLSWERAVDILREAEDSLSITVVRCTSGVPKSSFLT

T4: PDZRN3_1, Q9UPQ7
T4 sequence (Q9UPQ7 244-349, limits assumed, looked up): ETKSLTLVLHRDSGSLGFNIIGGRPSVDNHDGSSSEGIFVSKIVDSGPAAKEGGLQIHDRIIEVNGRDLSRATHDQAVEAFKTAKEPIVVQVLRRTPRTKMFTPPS

T5: TIAM2, Q8IVF5
T5 sequence (Q8IVF5 885-986, limits assumed, looked up): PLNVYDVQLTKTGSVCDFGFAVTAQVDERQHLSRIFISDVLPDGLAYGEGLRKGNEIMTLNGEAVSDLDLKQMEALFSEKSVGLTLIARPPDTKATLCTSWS

T6: SYNJ2BP, P57105
T6 sequence (P57105 8-110, limits assumed, looked up): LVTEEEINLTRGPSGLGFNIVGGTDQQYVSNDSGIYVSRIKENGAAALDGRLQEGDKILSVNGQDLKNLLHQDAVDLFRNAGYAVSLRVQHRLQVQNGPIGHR

T7: RAPGEF6, Q8TEU7
T7 sequence (Q8TEU7 525-625, limits assumed, looked up): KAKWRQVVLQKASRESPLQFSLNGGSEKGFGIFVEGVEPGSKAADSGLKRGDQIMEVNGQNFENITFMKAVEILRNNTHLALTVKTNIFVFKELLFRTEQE

T8: SIPA1L2, Q9P2F8
T8 sequence (Q9P2F8 945-1036, limits assumed, looked up): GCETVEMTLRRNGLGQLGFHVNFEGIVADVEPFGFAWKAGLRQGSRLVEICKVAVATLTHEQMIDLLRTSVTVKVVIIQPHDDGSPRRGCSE

T9: LNX2_2, Q8N448
T9 sequence (Q8N448 334-432, limits assumed, looked up): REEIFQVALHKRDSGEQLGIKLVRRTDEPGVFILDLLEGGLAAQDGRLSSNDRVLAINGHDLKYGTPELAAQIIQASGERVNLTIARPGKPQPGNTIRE

T10: PDZD7_3, Q9H5P4
T10 sequence (Q9H5P4 857-944, limits assumed, looked up): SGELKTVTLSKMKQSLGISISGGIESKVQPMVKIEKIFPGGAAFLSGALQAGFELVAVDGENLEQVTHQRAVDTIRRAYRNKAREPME

T11: LIN7A, O14910
T11 sequence (O14910 103-200, limits assumed, looked up): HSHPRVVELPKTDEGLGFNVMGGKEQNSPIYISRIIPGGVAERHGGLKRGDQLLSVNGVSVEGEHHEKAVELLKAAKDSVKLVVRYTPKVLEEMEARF

T12: DFNB31_1, Q9P202
T12 sequence (Q9P202 135-233, limits assumed, looked up): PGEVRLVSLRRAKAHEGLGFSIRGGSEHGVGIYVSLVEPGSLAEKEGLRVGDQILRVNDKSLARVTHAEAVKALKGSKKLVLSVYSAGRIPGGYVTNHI

T13: LIN7B, Q9HAP6
T13 sequence (Q9HAP6 88-185, limits assumed, looked up): T11 sequence (O14910 103-200, limits assumed, looked up) with S2A, V20I, I35V, E42D, H65Q, K77Q, D78G, K89R

B1: ADGRA2, Q96PE1 (peptide)
chain: TGLWKSETTV
B2: EPHB6, O15197 (peptide)
chain: HLRQQGSVEV

These binders were tested against T1, NHERF3_4, Q5T2W1 (assay: holdup assay). Conditions: plain residues with an end cap or a label only (N-terminal biotin on a linker: ado-ado).
Parameters: key: below the threshold = too weak to quantify, mostly under pKd 3.1 to 4

Binder | pKd
B1 | below the threshold
B2 | below the threshold

The binders below were run against HTRA1, Q92743 (assay: holdup assay). Conditions: plain residues with an end cap or a label only (N-terminal biotin on a linker: ado-ado).
Parameters: key: below the threshold = too weak to quantify, mostly under pKd 3.1 to 4

HTRA1, Q92743, sequence (Q92743 360-477): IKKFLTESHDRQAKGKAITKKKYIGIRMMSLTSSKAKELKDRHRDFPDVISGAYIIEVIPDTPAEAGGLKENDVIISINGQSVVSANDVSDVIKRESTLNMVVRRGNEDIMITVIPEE

Binder | pKd
B1 | 4.27
B2 | 4.59

The binders below were run against MAST2, Q6P0Q8 (assay: holdup assay). Conditions: plain residues with an end cap or a label only (N-terminal biotin on a linker: ado-ado).
Parameters: key: below the threshold = too weak to quantify, mostly under pKd 3.1 to 4

MAST2, Q6P0Q8, sequence (Q6P0Q8 1099-1202): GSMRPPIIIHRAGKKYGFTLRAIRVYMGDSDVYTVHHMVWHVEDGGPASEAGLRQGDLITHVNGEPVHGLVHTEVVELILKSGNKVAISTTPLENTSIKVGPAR

Binder | pKd
B1 | 5.23
B2 | 4.01

Each binder was assayed against T2, MPDZ_10, O75970 (assay: holdup assay). Conditions: plain residues with an end cap or a label only (N-terminal biotin on a linker: ado-ado).
Parameters: key: below the threshold = too weak to quantify, mostly under pKd 3.1 to 4

Binder | pKd
B1 | below the threshold
B2 | below the threshold

These binders were tested against DLG1_2, Q12959 (assay: holdup assay). Conditions: plain residues with an end cap or a label only (N-terminal biotin on a linker: ado-ado).
Parameters: key: below the threshold = too weak to quantify, mostly under pKd 3.1 to 4

DLG1_2, Q12959, sequence (Q12959 314-412): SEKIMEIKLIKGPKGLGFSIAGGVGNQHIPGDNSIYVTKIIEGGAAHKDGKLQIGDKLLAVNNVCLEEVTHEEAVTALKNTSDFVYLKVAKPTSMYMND

Binder | pKd
B1 | 5.26
B2 | 3.52

These binders were tested against T3, FRMPD1, Q5SYB0 (assay: holdup assay). Conditions: plain residues with an end cap or a label only (N-terminal biotin on a linker: ado-ado).
Parameters: key: below the threshold = too weak to quantify, mostly under pKd 3.1 to 4

Binder | pKd
B1 | below the threshold
B2 | below the threshold

Each binder was assayed against T4, PDZRN3_1, Q9UPQ7 (assay: holdup assay). Conditions: plain residues with an end cap or a label only (N-terminal biotin on a linker: ado-ado).
Parameters: key: below the threshold = too weak to quantify, mostly under pKd 3.1 to 4

Binder | pKd
B1 | 4.07
B2 | below the threshold

These binders were tested against SNX27, Q96L92 (assay: holdup assay). Conditions: plain residues with an end cap or a label only (N-terminal biotin on a linker: ado-ado).
Parameters: key: below the threshold = too weak to quantify, mostly under pKd 3.1 to 4

Binder | pKd
B1 | 5.4
B2 | 3.76

These binders were tested against T5, TIAM2, Q8IVF5 (assay: holdup assay). Conditions: plain residues with an end cap or a label only (N-terminal biotin on a linker: ado-ado).
Parameters: key: below the threshold = too weak to quantify, mostly under pKd 3.1 to 4

Binder | pKd
B1 | below the threshold
B2 | below the threshold

These binders were tested against T6, SYNJ2BP, P57105 (assay: holdup assay). Conditions: plain residues with an end cap or a label only (N-terminal biotin on a linker: ado-ado).
Parameters: key: below the threshold = too weak to quantify, mostly under pKd 3.1 to 4

Binder | pKd
B1 | 5.08
B2 | below the threshold

These binders were tested against FRMPD2_2, Q68DX3 (assay: holdup assay). Conditions: plain residues with an end cap or a label only (N-terminal biotin on a linker: ado-ado).
Parameters: key: below the threshold = too weak to quantify, mostly under pKd 3.1 to 4

FRMPD2_2, Q68DX3, sequence (Q68DX3 944-1038): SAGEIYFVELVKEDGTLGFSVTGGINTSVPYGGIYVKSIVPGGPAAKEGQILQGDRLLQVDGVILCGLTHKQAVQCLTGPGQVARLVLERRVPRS

Binder | pKd
B1 | 3.51
B2 | below the threshold

What follows are binders tested against PTPN3, P26045 (assay: holdup assay). Conditions: plain residues with an end cap or a label only (N-terminal biotin on a linker: ado-ado).
Parameters: key: below the threshold = too weak to quantify, mostly under pKd 3.1 to 4

PTPN3, P26045, sequence (P26045 505-587): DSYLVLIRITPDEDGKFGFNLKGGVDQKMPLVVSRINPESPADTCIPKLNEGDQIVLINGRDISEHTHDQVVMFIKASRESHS

Binder | pKd
B1 | 4.54
B2 | below the threshold

The binders below were run against Inadl_3, Q8NI35 (assay: holdup assay). Conditions: plain residues with an end cap or a label only (N-terminal biotin on a linker: ado-ado).
Parameters: key: below the threshold = too weak to quantify, mostly under pKd 3.1 to 4

Inadl_3, Q8NI35, sequence (Q8NI35 359-469): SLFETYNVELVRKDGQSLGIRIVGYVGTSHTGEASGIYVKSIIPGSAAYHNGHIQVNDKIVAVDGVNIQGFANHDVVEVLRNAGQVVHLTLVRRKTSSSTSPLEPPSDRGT

Binder | pKd
B1 | 3.97
B2 | below the threshold

These binders were tested against T7, RAPGEF6, Q8TEU7 (assay: holdup assay). Conditions: plain residues with an end cap or a label only (N-terminal biotin on a linker: ado-ado).
Parameters: key: below the threshold = too weak to quantify, mostly under pKd 3.1 to 4

Binder | pKd
B1 | below the threshold
B2 | below the threshold

Each binder was assayed against SCRIB_2, Q14160 (assay: holdup assay). Conditions: plain residues with an end cap or a label only (N-terminal biotin on a linker: ado-ado).
Parameters: key: below the threshold = too weak to quantify, mostly under pKd 3.1 to 4

SCRIB_2, Q14160, sequence (Q14160 857-960): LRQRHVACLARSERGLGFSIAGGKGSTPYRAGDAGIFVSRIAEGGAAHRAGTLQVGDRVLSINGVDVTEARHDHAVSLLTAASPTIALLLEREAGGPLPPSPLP

Binder | pKd
B1 | 4.31
B2 | below the threshold

The binders below were run against FRMPD3, Q5JV73 (assay: holdup assay). Conditions: plain residues with an end cap or a label only (N-terminal biotin on a linker: ado-ado).
Parameters: key: below the threshold = too weak to quantify, mostly under pKd 3.1 to 4

FRMPD3, Q5JV73, sequence (Q5JV73 12-100): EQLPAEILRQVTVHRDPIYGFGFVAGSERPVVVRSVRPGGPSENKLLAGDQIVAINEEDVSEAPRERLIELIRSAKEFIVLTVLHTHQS

Binder | pKd
B1 | below the threshold
B2 | below the threshold

Each binder was assayed against T8, SIPA1L2, Q9P2F8 (assay: holdup assay). Conditions: plain residues with an end cap or a label only (N-terminal biotin on a linker: ado-ado).
Parameters: key: below the threshold = too weak to quantify, mostly under pKd 3.1 to 4

Binder | pKd
B1 | below the threshold
B2 | below the threshold

The binders below were run against T9, LNX2_2, Q8N448 (assay: holdup assay). Conditions: plain residues with an end cap or a label only (N-terminal biotin on a linker: ado-ado).
Parameters: key: below the threshold = too weak to quantify, mostly under pKd 3.1 to 4

Binder | pKd
B1 | 4.98
B2 | 5.03

Each binder was assayed against LNX1_2, Q8TBB1 (assay: holdup assay). Conditions: plain residues with an end cap or a label only (N-terminal biotin on a linker: ado-ado).
Parameters: key: below the threshold = too weak to quantify, mostly under pKd 3.1 to 4

LNX1_2, Q8TBB1, sequence (Q8TBB1 371-470): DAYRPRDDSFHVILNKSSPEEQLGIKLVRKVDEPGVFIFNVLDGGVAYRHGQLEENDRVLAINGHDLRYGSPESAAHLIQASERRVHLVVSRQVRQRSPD

Binder | pKd
B1 | 3.89
B2 | 4.1

The binders below were run against T10, PDZD7_3, Q9H5P4 (assay: holdup assay). Conditions: plain residues with an end cap or a label only (N-terminal biotin on a linker: ado-ado).
Parameters: key: below the threshold = too weak to quantify, mostly under pKd 3.1 to 4

Binder | pKd
B1 | 4.65
B2 | below the threshold

What follows are binders tested against T11, LIN7A, O14910 (assay: holdup assay). Conditions: plain residues with an end cap or a label only (N-terminal biotin on a linker: ado-ado).
Parameters: key: below the threshold = too weak to quantify, mostly under pKd 3.1 to 4

Binder | pKd
B1 | 3.93
B2 | below the threshold

Each binder was assayed against DLG4_2, P78352 (assay: holdup assay). Conditions: plain residues with an end cap or a label only (N-terminal biotin on a linker: ado-ado).
Parameters: key: below the threshold = too weak to quantify, mostly under pKd 3.1 to 4

DLG4_2, P78352, sequence (P78352 155-259): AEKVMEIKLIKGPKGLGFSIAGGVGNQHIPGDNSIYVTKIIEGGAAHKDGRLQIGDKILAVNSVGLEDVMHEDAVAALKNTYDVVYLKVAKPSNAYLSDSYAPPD

Binder | pKd
B1 | 5.22
B2 | 3.72

The binders below were run against T12, DFNB31_1, Q9P202 (assay: holdup assay). Conditions: plain residues with an end cap or a label only (N-terminal biotin on a linker: ado-ado).
Parameters: key: below the threshold = too weak to quantify, mostly under pKd 3.1 to 4

Binder | pKd
B1 | 3.64
B2 | below the threshold

These binders were tested against T13, LIN7B, Q9HAP6 (assay: holdup assay). Conditions: plain residues with an end cap or a label only (N-terminal biotin on a linker: ado-ado).
Parameters: key: below the threshold = too weak to quantify, mostly under pKd 3.1 to 4

Binder | pKd
B1 | 3.51
B2 | below the threshold
